The source of these data is patent US8575093B2, “Composition and method for treating Streptococcus pneumoniae infection” (priority 2006, dated 2013).

Assay [1] deals with S. pneumoniae encapsulated serotype 3 strain WU2. The assay can be described thus: Inhibition of S. pneumoniae adhesion to A549 cells, strain WU2. It is filed as cell-based, Streptococcus pneumoniae. To be noted: 0.5 μg/well, protein added to cells; FIG. 5A. The method, then:
(§1) Inhibition of S. pneumoniae adhesion to A549 cells by addition of phages: A549 cells (type II epithelial lung carcinoma cells; ATCC, Rockville, Md., USA) were grown in DMEM medium supplemented with 10% foetal calf serum with penicillin and streptomycin (100 μg/ml each) at 37° C. in a humidified incubator. A549 cells (2.5×10^4/well) were cultured on fibronectin coated plates, to increase A549 cell adhesion to the wells and prevent their detachment during washings, in the absence of antibiotic for 24 hours at which time the cells reached confluence (5×10^4 cells/well on average). The plates were blocked with 1% gelatine for 1 hour and 10^6 CFU bacteria were added per well. The adhesion of S. pneumoniae to uncoated plates was negligible (<80 CFU/ml). The number of bacteria that adhered to fibronectin coated plates (8000±100 SD CFU/ml on average) was subtracted afterwards to determine the net number of bacteria that adhered to the A549 cells only. rFBA at the denoted concentrations (ranging from 5-30 μg/ml) was added to the cultured cells and incubated for an hour. Following extensive washings S. pneumoniae (10^6 CFU) were added for 1 hour incubation. To identify phages able to interfere in bacterial adhesion the bacteria were preincubated with the phages for 1 hour centrifuged and added to the cultured cells. […]

For assay [2], the system named is Unencapsulated S. pneumoniae serotype 3 strain 3.8DW. The assay can be described thus: Inhibition of S. pneumoniae adhesion to A549 cells, strain 3.8DW. Format: cell-based, Streptococcus pneumoniae. To be noted: 12 μg/well, protein added to cells; FIG. 5B. The method, then: as §1

B1: rFBA: Recombinant Fructose Bisphosphate Aldolase (FBA; SP0605 Streptococcus pneumoniae TIGR4), 33.5 kDa FBA-HAT fusion protein (protein)
chain: MAIVSAEKFVQAARDNGYAVGGFNTNNLEWTQAILRAAEAKKAPVLIQTSMGAAKYMGGYKVARNLIANLVESMGITVPVAIHLDHGHYEDALECIEVGYTSIMFDGSHLPVEENLKLAKEVVEKAHAKGISVEAEVGTIGGEEDGIIGKGELAPIEDAKAMVETGIDFLAAGIGNIHGPYPVNWEGLDLDHLQKLTEALPGFPIVLHGGSGIPDEQIQAAIKLGVAKVNVNTECQIAFANATRKFARDYEANEAEYDKKKLFDPRKFLADGVKAIQASVEERIDVFGSEGKA
modifications: left off: small tags and cut ends
notes: Recombinant Fructose Bisphosphate Aldolase (FBA; SP0605 Streptococcus pneumoniae TIGR4), 33.5 kDa FBA-HAT fusion protein
Regarding B1, the results for the “inhibition of adhesion to A549 cells” value in assay [1] and in assay [2] were 63% and 92%, respectively.
